# Measured values as given in patent US20090012494A1, “I[…] OF BIOLOGICAL AGENTS” (NanoPass Technologies Ltd., priority 2006, published 2009).
# Target: T1, Insulin from Porcine Pancreas (antigen) (Sus scrofa, UniProt P01315)
# T1 construct: Insulin from Porcine Pancreas; purchased SIGMA 1-5523; host or cells: porcine pancreas (tissue-derived)
# Assay: Guinea pig ID immunization with porcine insulin; antigen/antibody complex by Dextran coated Charcoal Radioimmunoassay
# Format: in vivo, Dunkin Hartley male Guinea Pigs
# Protocol: Various animals (e.g., Guinea pigs) are used in industry to produce primary and secondary antibodies for biological and clinical research, based on immunoassay methods (e.g. ELISA). In some of these animals the specific antigen is injected intradermally, in order to achieve a larger and/or faster immune response (antibodies production). After the primary immunization, several immunization boosters are given at different time intervals, and blood is collected. The antibodies production level is measured by measuring the antigen/antibody complex formation levels, in different dilution levels, using conventional immunoassay methods. Usually, a fixed cut-off value (percentage of antigen/antibodies complex formation in a specific dilution level) must be achieved.
# 18 Dunkin Hartley male Guinea Pigs were divided into two groups. The animals were anesthetized with a 0.2 ml of Ketamine/Xylazine mixture (1:1 ratio) I.M. Anesthetizing was followed by 0.1 ml I.D. immunization with Insulin from Porcine Pancreas (SIGMA, Cat. No. 1-5523) in a Freund's adjuvant emulsion mixture (SIGMA), injected in 4 sites on the skin. […] After plasma separation, antigen/antibody complex levels were detected in the 2 ml serum sample, using a Dextran coated Charocal Radioimmunoassay method.
# T1 sequence (P01315 25-54 limits assumed): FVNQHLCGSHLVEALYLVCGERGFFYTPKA
# T1 sequence (P01315 88-108 limits assumed): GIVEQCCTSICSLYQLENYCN
substance,measurement,setting,value
"Insulin from Porcine Pancreas: Insulin from Porcine Pancreas (SIGMA) in a Freund's adjuvant emulsion mixture, used as immunizing antigen","production time needed to achieve the per-protocol cut-off value, microneedle versus regular injection","cut-off 50% Antigen/Antibody complex formation at dilution 1:80 K, microneedle vs regular 25 g needle",3 times shorter
same,"Antigen/Antibody complex formation, Ka [L/mol] values, microneedle versus regular injection","dilution level 1:80K, ID microneedles (Nano) vs regular 25 g hypodermic needle, in Freund's adjuvant",more than 3 times higher
